Data from US20220135940A1, “METHOD FOR PRODUCING KIDNEY STRUCTURE HAVING DENDRITICALLY BRANCHED COLLECTING DUCT FROM PLURIPOTENT STEM CELLS” (NATIONAL UNIVERSITY CORPORATION KUMAMOTO UNIVERSITY, priority 2018, published 2022).

Columns and labels:
Format in all cases: cell-based
mouse ES cells [1] = assay: AIM induction from mouse ES cells (procedure 3), AIM marker expression; settings: Fgf9 at high concentrations
Protocol: (§1) ES cells were differentiated in a serum-free medium as follows. The ES cells were dissociated with Accutase™ (ESGRO) and cultured in a serum-free mouse ES cell differentiation medium. The harvested cells were aggregated in a 96-well U-bottom low cell binding plate at 1,000 cells per aggregate to form embryonic bodies (EBs). After 48 hours (day 2), the EBs were dissociated with Accutase and re-aggregated in a serum-free differentiation medium supplemented with 10 ng/mL human activin A (R & D) (Procedure 1). After 24 hours (day 3), the medium was replaced with a medium containing 0.3 ng/mL human Bmp4 (R & D) and 10 μM CHIR 99021 (Procedure 2). After 36 hours (day 4.5), the medium was replaced with procedure 3 medium containing 0.1 μM retinoic acid, 100 ng/mL human Fgf9 and 10 μM SB431542 (Wako). On day 5.5 (24 hours later), the medium was replaced with a medium containing 0.1 μM retinoic acid, 100 ng/mL human Fgf9 and 5 μM CHIR99021 (“Procedure 4 medium”). The differentiation factors of the Hoxb7-GFP ES cell line are shown in the table below together with the differentiation factors of the Osr1-GFP ES cell line.
Harvested spheroids or cells were homogenized, and total RNA was isolated using RNeasy Plus Micro Kit (Qiagen), and then a reverse-transcribed with random primers and Superscript III (Invitrogen). Quantitative PCR was carried out using Real-Time PCR system (Takara Bio) and Thunderbird SYBR qPCR Mix (Toyobo). With normalized by β-actin gene, relative mRNA expression levels were analyzed.
Next, signaling for the AIM differentiation procedure was hypothesized, which is partially different from that for PIM, based on the gene expression profile minimally conserved, between anterior intermediate mesoderm (AIM) (Osr1+, Pax2+, Pax8+, Emx2+, Lhx1+, Gata3+) and posterior intermediate mesoderm (PIM) (Osr1+, Wtl+, Hoxll+) (Procedure 3 in FIG. 2).

mouse ES cells [2] = assay: Induction of CXCR4+/KIT+ WD progenitors from mouse ES cells, FACS at day 6.25; settings: Bmp4 in procedure 2, activin A in procedure 1
Protocol: as §1
On day 6.25, the induced spheroids were harvested and dissociated by incubating in 0.25% trypsin/EDTA at 37° C. for 6 minutes. After blocking in normal mouse serum, cell surface marker (CXCR4/KIT) staining was carried out in a buffer containing 1% BSA, 1×HBSS and 0.035% NaHCO3. The FACS-sorted 3,000 Hoxb7-GFP+/CXCR4+/KIT+ cells were aggregated in a V-bottom 96-well low cell binding plate to form spheroids. Subsequently, these were cultured using the above E8.75 embryonic tissue culture conditions.
(§2) Cell aggregates induced from embryonic tissue or mouse ES cells/human iPS cells were dissociated and blocked with normal mouse serum and then cell surface marker staining was carried out in a buffer containing 1% BSA, 1×HBSS and 0.035% NaHCO3. Data analysis was performed with FlowJo software (Treestar).

human iPS cells [3] = assay: Induction of CXCR4+/KIT+ WD progenitors from human iPS cells, FACS at day 6.25; settings: epiblast patterning stage (day 0 to day 1), combination of activin A and Bmp4
Protocol: Cells were reaggregated at 10,000 cells per aggregate in a V-bottom 96-well low cell binding plate using a medium containing 10 μM Y27632 and 10 ng/mL human activin A and 1 ng/mL human Bmp4 (“Procedure 1 medium”), to form embryonic bodies (EBs). After 24 hours (day 1), the aggregates were transferred to a U-bottom 96-well low cell binding plate containing a medium containing 10 μM CHIR and 1 ng/mL human Bmp4 (“Procedure 2 medium”). After 36 hours (day 2.5), the medium was replaced with a medium containing 0.1 μM retinoic acid, 100 ng/mL human Fgf9, 100 nM LDN193189 and 100 μM SB431542 (“Procedure 3 medium”). On day 4.5, the medium was replaced with a medium containing 0.1 μM retinoic acid, 5 μM CHIR, 100 ng/mL human Fgf9 and 30 nM LDN193189 (“Procedure 4 medium”).
On day 6.25, the induced spheroids were harvested and dissociated by incubating in 0.25% trypsin/EDTA for 6 minutes at 37° C. After blocking in normal mouse serum, cell surface marker (CXCR4/KIT) staining was carried out in a buffer containing 1% BSA, 1×HBSS and 0.035% NaHCO3. The FACS-sorted 5,000 of CXCR4+/KIT+ cells were seeded in a V-bottom 96-well low cell binding plate and precipitated by the centrifuge (210 G for 4 minutes). The supernatant was replaced with a medium containing 10 μM Y27632, 0.1 μM retinoic acid, 1 μM CHIR, 5 ng/mL human Fgf9, 100 ng/mL human Fgf1, 10 nM LDN193189 and 10% growth factor reduced Matrigel (“Procedure 5 medium”). On day 8.5, the spheroids were transferred to a medium containing 10 μM Y27632, 0.1 μM retinoic acid, 3 μM CHIR, 5 ng/mL human Fgf9, 1 ng/mL human GDNF, 100 ng/mL human Fgf1, 10 nM LDN193189 and 10% growth factor reduced Matrigel (“Procedure 6 medium”). On day 10.5, the spheroids were transferred to a medium containing 10 μM Y27632, 0.1 μM retinoic acid, 3 μM CHIR, 2 ng/mL human GDNF, 100 ng/mL human Fgf1, 10 nM LDN193189 and 10% growth factor reduce Matrigel (“Procedure 7 medium”).
as §2
Next, the optimal time window for inducing anterior or posterior intermediate mesoderm from the nascent mesoderm was examined. Since the nascent mesoderm population is maintained by the high concentrations of Wnt agonists, the incubation period with Wnt agonists was varied and the subsequent differentiation was applied with conditions specific to the UB or metanephric nephron progenitor cell lineage. The induction efficiency of CXCR4+/KIT+ WD progenitor or ITGA8+/PDGFRA− nephron progenitor cell fraction was examined at day 6.25 or day 12, respectively. […]

human iPS cells [4] = assay: Induction of ITGA8+/PDGFRA- nephron progenitor cells from human iPS cells, FACS at day 12; settings: epiblast patterning stage, absence of Bmp4
Protocol: The previously reported protocol (Taguchi 2014 above) was modified and applied. In the presence of 10 μM Y27632 and 1 ng/mL human activin A, cells were reaggregated at 10,000 cells per aggregate in a V-bottom 96-well low cell binding plate, to form embryonic bodies (EBs). After 24 hours (day 1), the aggregates were transferred to a U-bottom 96-well low cell binding plate containing the mesoderm-inducing medium containing 10 μM CHIR. Subsequently, half of the culture medium was replaced with a fresh medium every other day (day 3 and day 5). On day 7, the medium was replaced with ABC3R medium containing 10 ng/mL human activin A, 3 ng/mL human Bmp4, 3 μM CHIR and 0.1 μM retinoic acid. On day 9, the medium was replaced with ClF medium containing 1 μM CHIR and 5 ng/mL human Fgf9.
as §2
Next, the optimal time window for inducing anterior or posterior intermediate mesoderm from the nascent mesoderm was examined. […]

B1: activin A: homodimer of two inhibin BA chains (protein, UniProt P08476 311-426, looked up)
Inhibin beta A chain: GLECDGKVNICCKKQFFVSFKDIGWNDWIIAPSGYHANYCEGECPSHIAGTSGSSLSFHSTVINHYRMRGHSPFANLKSCCVPTKLRPMSMLYYDDGQNIIKKDIQNMIVEECGCS
modifications: Inhibin beta A chain
notes: homodimer of two inhibin BA chains
- induction of AIM markers (mouse ES cells [1]): inhibitory to the induction of AIM markers
- UB induction versus MM induction, concentration dependence (mouse ES cells [2]): higher concentration of activin A was preferred for UB induction
- concentration at which WD progenitor induction peaked (human iPS cells [3]): 10 ng/mL
- concentration at which induction of nephron progenitor cells was maximized (human iPS cells [4]): 1 ng/mL
